Results published in PMC9482650, “Quantitative fragmentomics allow affinity mapping of interactomes” (Nature Communications, 2022).

T1: APBA3_2, O96018
T1 sequence (O96018 480-570, limits assumed, looked up): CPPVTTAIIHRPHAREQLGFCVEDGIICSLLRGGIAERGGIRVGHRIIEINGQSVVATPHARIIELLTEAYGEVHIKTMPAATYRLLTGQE

T2: GRIP1_1, Q9Y3R0
T2 sequence (Q9Y3R0 48-146, limits assumed, looked up): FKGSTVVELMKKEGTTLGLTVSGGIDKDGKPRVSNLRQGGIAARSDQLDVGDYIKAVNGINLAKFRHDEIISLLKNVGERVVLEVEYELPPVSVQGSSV

T3: LNX2_4, Q8N448
T3 sequence (Q8N448 595-690, limits assumed, looked up): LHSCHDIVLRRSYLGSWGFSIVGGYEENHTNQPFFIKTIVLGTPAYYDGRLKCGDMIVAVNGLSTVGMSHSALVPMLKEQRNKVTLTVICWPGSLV

T4: MAGI2_1, Q86UL8
T4 sequence (Q86UL8 12-111, limits assumed, looked up): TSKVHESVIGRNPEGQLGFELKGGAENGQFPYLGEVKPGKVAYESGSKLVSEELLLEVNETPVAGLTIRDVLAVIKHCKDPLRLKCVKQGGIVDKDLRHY

T5: MLLT4, P55196
T5 sequence (P55196 1002-1103, limits assumed, looked up): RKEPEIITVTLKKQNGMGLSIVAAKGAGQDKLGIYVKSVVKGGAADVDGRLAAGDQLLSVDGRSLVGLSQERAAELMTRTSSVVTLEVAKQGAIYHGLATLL

T6: MPDZ_3, O75970
T6 sequence (O75970 372-473, limits assumed, looked up): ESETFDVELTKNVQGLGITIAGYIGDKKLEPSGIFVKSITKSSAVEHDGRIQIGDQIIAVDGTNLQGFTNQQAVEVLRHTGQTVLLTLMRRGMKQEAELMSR

T7: PARD6B, Q9BYG5
T7 sequence (Q9BYG5 152-260, limits assumed, looked up): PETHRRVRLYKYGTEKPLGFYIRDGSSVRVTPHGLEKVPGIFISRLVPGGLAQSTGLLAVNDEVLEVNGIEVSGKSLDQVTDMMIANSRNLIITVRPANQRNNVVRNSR

T8: PDZD2_1, O15018
T8 sequence (O15018 80-192, limits assumed, looked up): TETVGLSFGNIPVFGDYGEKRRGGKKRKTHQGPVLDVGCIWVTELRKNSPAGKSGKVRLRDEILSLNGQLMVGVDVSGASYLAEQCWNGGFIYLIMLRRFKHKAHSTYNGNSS

T9: PDZD7_1, Q9H5P4
T9 sequence (Q9H5P4 81-178, limits assumed, looked up): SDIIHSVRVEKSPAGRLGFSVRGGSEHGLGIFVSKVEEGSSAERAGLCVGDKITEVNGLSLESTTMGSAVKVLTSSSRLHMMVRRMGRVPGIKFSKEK

T10: PDZD7_2, Q9H5P4
T10 sequence (Q9H5P4 205-303, limits assumed, looked up): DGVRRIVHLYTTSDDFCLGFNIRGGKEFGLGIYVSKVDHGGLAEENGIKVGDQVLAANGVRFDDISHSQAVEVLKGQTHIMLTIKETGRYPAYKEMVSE

T11: PDZD8, Q8NEN9
T11 sequence (Q8NEN9 361-459, limits assumed, looked up): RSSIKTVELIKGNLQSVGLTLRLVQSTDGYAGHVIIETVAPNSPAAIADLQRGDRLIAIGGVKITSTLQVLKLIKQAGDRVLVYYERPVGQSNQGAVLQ

T12: PTPN13_4, Q12923
T12 sequence (Q12923 1783-1878, limits assumed, looked up): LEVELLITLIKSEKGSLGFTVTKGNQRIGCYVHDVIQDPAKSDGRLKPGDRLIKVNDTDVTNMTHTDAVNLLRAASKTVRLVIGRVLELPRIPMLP

T13: SNTB2, Q13425
T13 sequence (Q13425 110-208, limits assumed, looked up): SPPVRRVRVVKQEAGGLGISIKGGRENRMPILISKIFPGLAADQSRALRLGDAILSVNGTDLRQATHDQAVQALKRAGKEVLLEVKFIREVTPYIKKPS

T14: SYNPO2L, Q9H987
T14 sequence (Q9H987 1-98, limits assumed, looked up): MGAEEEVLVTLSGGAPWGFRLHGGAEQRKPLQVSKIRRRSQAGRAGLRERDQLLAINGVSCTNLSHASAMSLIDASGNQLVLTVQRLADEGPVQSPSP

B1: FZD7, O75084 (peptide)
chain: SHSSKGETAV
B2: SLC15A5, A6NIM6 (peptide)
chain: SSIDLWETAL
B3: HPV33-E6, P06427 (peptide)
chain: SRSRRRETAL
B4: HPV82-E6, Q9IR59 (peptide)
chain: PPRQRSETQV
B5: RASSF6, Q6ZTQ3 (peptide)
chain: KLVIKTETTV
B6: NET1, Q7Z628 (peptide)
chain: SGGKRKETLV

What was measured:
Test in all cases: holdup assay
Set-up in all cases: key: below the threshold = too weak to quantify, mostly under pKd 3.1 to 4
Conditions in all cases: plain residues with an end cap or a label only (N-terminal biotin on a linker: ttds)
[1] = molecular target: T1, APBA3_2, O96018
[2] = molecular target: CARD14, Q9BXL6
[3] = molecular target: CNKSR3, Q6P9H4
[4] = molecular target: T2, GRIP1_1, Q9Y3R0
[5] = molecular target: GRIP2_2, Q9C0E4
[6] = molecular target: T3, LNX2_4, Q8N448
[7] = molecular target: MAGI1_3, Q96QZ7
[8] = molecular target: MAGI1_6, Q96QZ7
[9] = molecular target: T4, MAGI2_1, Q86UL8
[10] = molecular target: MAGI3_4, Q5TCQ9
[11] = molecular target: T5, MLLT4, P55196
[12] = molecular target: T6, MPDZ_3, O75970
[13] = molecular target: T7, PARD6B, Q9BYG5
[14] = molecular target: T8, PDZD2_1, O15018
[15] = molecular target: T9, PDZD7_1, Q9H5P4
[16] = molecular target: T10, PDZD7_2, Q9H5P4
[17] = molecular target: T11, PDZD8, Q8NEN9
[18] = molecular target: PDZRN4_2, Q6ZMN7
[19] = molecular target: PREX1_1, Q8TCU6
[20] = molecular target: T12, PTPN13_4, Q12923
[21] = molecular target: T13, SNTB2, Q13425
[22] = molecular target: T14, SYNPO2L, Q9H987
[23] = molecular target: TJP1_1, Q07157
TJP1_1, Q07157, sequence (Q07157 18-120): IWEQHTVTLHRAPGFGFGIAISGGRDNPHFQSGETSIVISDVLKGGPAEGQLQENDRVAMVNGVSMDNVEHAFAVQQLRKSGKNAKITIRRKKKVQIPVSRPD

PREX1_1, Q8TCU6, sequence (Q8TCU6 608-718): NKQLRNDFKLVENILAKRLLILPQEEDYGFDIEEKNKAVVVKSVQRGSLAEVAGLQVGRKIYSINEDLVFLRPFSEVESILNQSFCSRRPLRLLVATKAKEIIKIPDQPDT
GRIP2_2, Q9C0E4, sequence (Q9C0E4 137-245): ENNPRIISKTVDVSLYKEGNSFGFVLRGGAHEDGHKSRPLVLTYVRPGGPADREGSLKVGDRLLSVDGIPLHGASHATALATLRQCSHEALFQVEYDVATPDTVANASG
PDZRN4_2, Q6ZMN7, sequence (Q6ZMN7 389-498): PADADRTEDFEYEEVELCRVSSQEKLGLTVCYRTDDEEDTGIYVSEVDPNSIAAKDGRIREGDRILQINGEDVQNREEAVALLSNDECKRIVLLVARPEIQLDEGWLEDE
CARD14, Q9BXL6, sequence (Q9BXL6 558-663): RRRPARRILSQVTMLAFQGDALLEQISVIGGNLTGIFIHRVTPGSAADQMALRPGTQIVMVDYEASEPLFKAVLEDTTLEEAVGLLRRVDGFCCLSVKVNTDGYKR
CNKSR3, Q6P9H4, sequence (Q6P9H4 203-303): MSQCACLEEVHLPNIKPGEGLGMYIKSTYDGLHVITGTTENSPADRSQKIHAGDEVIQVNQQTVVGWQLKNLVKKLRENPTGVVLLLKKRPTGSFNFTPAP
MAGI1_6, Q96QZ7, sequence (Q96QZ7 1146-1238): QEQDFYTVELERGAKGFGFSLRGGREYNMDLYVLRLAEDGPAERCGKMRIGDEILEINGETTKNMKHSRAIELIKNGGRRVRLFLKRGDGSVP
MAGI1_3, Q96QZ7, sequence (Q96QZ7 638-725): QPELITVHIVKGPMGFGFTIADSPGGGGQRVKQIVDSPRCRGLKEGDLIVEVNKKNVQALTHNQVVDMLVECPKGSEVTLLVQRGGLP
MAGI3_4, Q5TCQ9, sequence (Q5TCQ9 716-815): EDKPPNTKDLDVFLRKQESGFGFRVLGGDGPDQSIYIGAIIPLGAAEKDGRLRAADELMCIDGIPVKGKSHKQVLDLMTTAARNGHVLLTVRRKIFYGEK

Binder	pKd [1]	pKd [2]	pKd [3]	pKd [4]	pKd [7]	pKd [8]	pKd [9]	pKd [10]	pKd [11]	pKd [12]	pKd [13]	pKd [14]	pKd [15]	pKd [16]	pKd [17]	pKd [18]	pKd [19]	pKd [20]	pKd [22]	pKd [23]	further results
B1	below the threshold	below the threshold	below the threshold	below the threshold	below the threshold	4.7	4.39	below the threshold	below the threshold	below the threshold	below the threshold	below the threshold	below the threshold	below the threshold	below the threshold	below the threshold	below the threshold	below the threshold	below the threshold	below the threshold	pKd [5]: 4.49; pKd [6]: below the threshold; pKd [21]: below the threshold
B2	below the threshold	below the threshold	below the threshold	below the threshold	below the threshold	5.18	below the threshold	below the threshold	below the threshold	4.85	below the threshold	below the threshold	4.95	below the threshold	below the threshold	below the threshold	below the threshold	below the threshold	below the threshold	below the threshold	pKd [5]: below the threshold; pKd [6]: 5.03; pKd [21]: 5.54
B3	4.28	below the threshold	below the threshold	below the threshold	below the threshold	below the threshold	below the threshold	below the threshold	below the threshold	below the threshold	below the threshold	below the threshold	below the threshold	4.42	below the threshold	below the threshold	below the threshold	below the threshold	below the threshold	below the threshold	pKd [5]: below the threshold; pKd [6]: below the threshold; pKd [21]: 4.56
B4	below the threshold	below the threshold	below the threshold	below the threshold	4.28	4.21	below the threshold	below the threshold	below the threshold	below the threshold	below the threshold	below the threshold	below the threshold	below the threshold	below the threshold	below the threshold	below the threshold	below the threshold	below the threshold	below the threshold	pKd [5]: below the threshold; pKd [6]: below the threshold; pKd [21]: below the threshold
B5	–	below the threshold	below the threshold	below the threshold	4.32	below the threshold	below the threshold	below the threshold	below the threshold	below the threshold	below the threshold	below the threshold	below the threshold	below the threshold	below the threshold	below the threshold	4.1	below the threshold	below the threshold	below the threshold	pKd [5]: below the threshold; pKd [6]: below the threshold; pKd [21]: 4.2
B6	below the threshold	–	below the threshold	below the threshold	4.91	below the threshold	below the threshold	below the threshold	4.02	below the threshold	below the threshold	below the threshold	below the threshold	below the threshold	below the threshold	below the threshold	below the threshold	below the threshold	below the threshold	3.89	–
